According to patent US20250101113A1:

Biological target: human CD94 on cells (human) (UniProt Q13241)
Experiment: cell-based or functional assay

Chain of UniProt Q13241 (Q13241 whole entry): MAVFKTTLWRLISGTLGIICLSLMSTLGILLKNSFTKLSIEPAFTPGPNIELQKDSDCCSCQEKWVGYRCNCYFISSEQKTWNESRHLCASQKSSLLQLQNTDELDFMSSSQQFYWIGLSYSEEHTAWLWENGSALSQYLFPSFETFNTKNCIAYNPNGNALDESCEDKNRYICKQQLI

CD107a expression on IL-2-activated NK cells co-cultured with HLA-E-expressing SP-53 cells (% of cells): 16%
Substance: commercial murine anti-CD94 antibody (clone DX22 from Biolegend Catalog #305502)
